Consider 167 variants from the RNAGym collection of RNA variant scans (doi:10.7554/elife.90254).

B1: LINE1-full (parent)
chain: UACGUAGGUGGUUUUCCCCUGAUAGUGCUAAGGGGGCCUGGAAGUUUGGACUGGGCAGAGCUCAACACAGCGUGGCAAAGUGGCUGUGGCUAGACUGCCUCUCUGGAUUCCUCGUCACUCAGCAGGGCAUCUCUGAGAGAAAUGCC

This data set covers variants of B1. The data set can be described thus: self-cleavage, relative activity (ratio to wild type); higher = more cleavage; in vitro, sequencing; the parent is a self-cleaving ribozyme.
As to U12G U112C, the self-cleavage was 1.01.
As for U12G U26C, the figure is 0.57; as for U12G U26A, 1.3.
The result for U12C U96A reads 0.1.
As for U12C U96C, the figure is 0.19.
Regarding U12C U102A, the self-cleavage was determined as 1.66.
As for U12G A69U, the figure is 0.08.
As for G10U A59U, the figure is 0.72; as for U12C G41A, 1.26.
The result for G10A U73G reads 1.14; that for U12G A136U, 0.76; that for G11A A79G, 0.56.
Turning to G11U U134G, the self-cleavage amounted to 1.07.
As for G11A U20C, the figure is 2.58; as for G11A U20G, 1.05.
G10A U130G: the self-cleavage was 0.93.
The result for U13A A69C reads 0.08.
The result for U13A A69U reads 0.01; that for U13A A69G, 0.25; that for U12C C18G, 2.1.
The result for U12C C18U reads 1.28; that for G10U U130C, 0.81; that for U12G C56U, 0.22.
With U12C A24G, the self-cleavage worked out at 1.13.
In the case of U13A A64U, the self-cleavage was found to be 0.25.
As for U13A A64G, the figure is 0.12.
The result for G10A U104C reads 0.37; that for G11A G60A, 0.01.
G11A C28G: the self-cleavage stood at 1.12.
The result for G11A A121U reads 0.95; that for U12A U96G, 0.38; that for U12A A94G, 0.55.
Take U12G A22C: the self-cleavage amounted to 1.68.
As for G11A U46C, the figure is 0.94.
As for U12C C71U, the figure is 0.9; as for G11A U119A, 0.93.
The result for U12C C103A reads 1.01; that for U12C U73C, 1.65; that for U12C U73A, 1.75.
Take G11A A141U: the self-cleavage worked out at 1.05.
As for U12C U26G, the figure is 0.58; as for U12G C84U, 0.2; as for U12C A141G, 1.5.
On to U12C A141U, for which the self-cleavage worked out at 0.87.
Take U12G A42C: the self-cleavage stood at 1.1.
As for U12C G75A, the figure is 1.46; as for U12A U46C, 1.31.
The result for U12C C145G reads 1.06; that for U12C G122U, 1.04.
As to U13A A92G, the self-cleavage came out at 0.12.
As for U12C G27A, the figure is 0.87.
The result for U13A A24G reads 0.53; that for U12C A138G, 1.37.
As for G11A G49U, the figure is 1.35; as for U12G U23A, 0.85.
As for U13A A42G, the self-cleavage was determined as 1.26.
The result for U12C A129G reads 1.4; that for G11A C63A, 0.01; that for U12C U81C, 1.11.
The result for U12C U81A reads 1; that for U12A A30G, 0.94.
As for U13A C19A, the figure is 1.84; as for U12G G93A, 0; as for U12G A92G, 0.21.
With U12G A92U, the self-cleavage stood at 0.62.
U13A A142G: the self-cleavage was 1.2.
As for U12C A42U, the figure is 1; as for U12C U39C, 1.4; as for U12C U39A, 1.32.
As for U12C A92U, the figure is 0.56.
As for U12C A92C, the self-cleavage is 0.81.
The result for U12C A92G reads 0.09.
The result for U13A A121U reads 1.12; that for U12A G35A, 0.98; that for U12A G35C, 1.52.
As for U12A U109A, the figure is 0.65; as for U12C A78C, 2.54.
Consider U12C A78G, for which the self-cleavage amounted to 0.95.
As for U12A U87C, the figure is 0.25; as for U12C A65G, 0.15.
As for U13A A59U, the figure is 0.44.
As to U12C A64C, the self-cleavage was 0.7.
The result for U12C A64U reads 1.53.
Take U12C G139A: the self-cleavage came out at 0.94.
Take U12G A57G: the self-cleavage was 1.42.
The result for G11A U12G reads 0.47; that for G11A U12C, 0.33.
As for U12A A121G, the figure is 1.43; as for U12C G33U, 1.36.
As for U12C G33C, the figure is 1.28.
In the case of U13A C37U, the self-cleavage turned out to be 0.72.
Regarding U12G C19U, the self-cleavage turned out to be 1.09.
As for G10U U91C, the figure is 0.44; as for U12C C111U, 1.74; as for U12C G55A, 0.64.
On to U12C U115C, for which the self-cleavage was found to be 1.21.
As for U12A U45C, the figure is 0.82.
The result for U12C G35A reads 1.62; that for U12C A59U, 0.13; that for G11U U20C, 0.34.
The result for U12G U39C reads 1.61; that for U12G A138U, 1.02.
On to G10A U62C, for which the self-cleavage came out at 0.06.
The result for U12C U62C reads 0.09.
The result for U12C U62A reads 0.13.
As for U12C A107C, the figure is 1.53; as for U12C A107U, 0.66; as for G10A G32A, 0.73.
Take U12G U132C: the self-cleavage is 1.02.
Regarding U12G U132A, the self-cleavage turned out to be 0.66.
The result for U12G U46C reads 1.29; that for U12G G33A, 1.47; that for U12C U91C, 0.92.
As for U12C G86A, the figure is 0.14.
The result for U12A A79G reads 1.13.
Regarding U12A U52A, the self-cleavage was 1.28.
As for U12A U52C, the figure is 1.06; as for U12G U62A, 0.16.
As for U12G U62C, the figure is 0.14; as for U12C A30G, 0.87.
On to U12C A30U, for which the self-cleavage was 0.53.
The result for G10U U104C reads 2.42.
Consider U12A U13C, for which the self-cleavage is 1.58.
As for U12G A117G, the figure is 1.35; as for U12G U52C, 0.79.
As for U12G U52A, the figure is 1.22.
The result for G10C C146U reads 1.91.
Consider U12G C61A, for which the self-cleavage was determined as 0.14.
The result for G10A U12C reads 1.04; that for U12G A121U, 1.31; that for U12C G49U, 1.35.
The result for U12A U85A reads 0.15; that for G11A A124U, 1.43.
On to U12C G36A, for which the self-cleavage was found to be 1.04.
Regarding U12G G55A, the self-cleavage was 0.15.
The result for U12G G32A reads 0.78; that for U12C G58A, 0.09.
The result for U12C G127C reads 1.84; that for U12G U91A, 0.97.
As for U12C U85C, the figure is 0.12; as for U12C A57U, 0.22; as for G11A A142G, 1.23.
Take G10C U73C: the self-cleavage came out at 1.64.
Take U12A U104A: the self-cleavage came to 1.19.
For the variant U13A A30U, the self-cleavage was 0.7.
As for U12A G49A, the figure is 1.05.
The result for U12C U143C reads 1.46; that for U12C C28U, 0.74.
Take U12C A43G: the self-cleavage came to 1.33.
The result for U12C A43C reads 1.45; that for U12C U29C, 1.44.
U12C U29A: the self-cleavage was 1.16.
The result for U12C G126A reads 1.73; that for U12C A69C, 0.09; that for U13A A79U, 0.96.
Take U12A A50C: the self-cleavage turned out to be 0.57.
As for U12A A50G, the figure is 1.45; as for U12C A67G, 0.77.
As for U12C A67U, the figure is 0.21; as for U12C A67C, 0.09.
For G10A U52C, the self-cleavage was determined as 0.62.
The result for G11A A64U reads 0.3; that for U12C U47A, 0.71.
As for U12C U47G, the figure is 1.21; as for G11C U20C, 1.53.
As for G11C A57G, the figure is 0.71.
Turning to U12C C19A, the self-cleavage stood at 0.85.
